Measured values taken from patent US20250034621, “LOCKED APTAMER HAIRPIN INTEGRATED HYBRIDIZATION CHAIN REACTION FOR RAPID, INSTRUMENT-FREE BIOMARKER DETECTION” (The Texas A&m University System, published 2025).

Biological target: cardiac troponin I (cTnI) (UniProt P19429 P19429:2-210)
Test: cTnI-dependent opening of aptamer on magnetic particles, supernatant fluorescence of tagged HTG-H1 falls with cTnI; 0.5 ng/mL not distinguishable from blank; native PAGE HCR products also cTnI-dependent (p77, FIG. 6B); SERRS LOD 0.5 pg/mL in serum (p85), colorimetric hyperbranched HCR LOD 0.117 ng/mL (p104); high-salt buffer 20 mM Tris pH 7.6, 1000 mM NaCl, 5 mM KCl, 2 mM MgCl2, 1 mM CaCl2
Settings: tags: Genscript (SERRS studies); label: biotin (on streptavidin magnetic particles)

Sequence of cardiac troponin I (cTnI) (P19429 2-210, one chain of several): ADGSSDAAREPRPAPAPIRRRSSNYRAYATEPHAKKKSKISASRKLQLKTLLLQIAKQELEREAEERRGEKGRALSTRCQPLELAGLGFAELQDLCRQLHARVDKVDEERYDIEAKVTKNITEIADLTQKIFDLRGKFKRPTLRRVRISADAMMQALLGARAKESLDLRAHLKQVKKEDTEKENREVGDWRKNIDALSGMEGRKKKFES

B1: locked Tro4 aptamer-initiator (Tro4 + A8 spacer + HCR initiator + blocker) (ssDNA)
DNA: TTTTTCGTGCAGTACGCAACCTTTCTCATGCGCTGCCCCTCTTAAAAAAAAGCAGATCCTAAGCCGCACCCAATTAAGGGGCAGCGCATGAGAAAGGTTCCGTA
binding result: binds
